T1: CD86-mIgG (Ancell, Inc) (UniProt P42081 24-247, limits assumed)
T1 construct: Bought reagent
T1 sequence (looked up): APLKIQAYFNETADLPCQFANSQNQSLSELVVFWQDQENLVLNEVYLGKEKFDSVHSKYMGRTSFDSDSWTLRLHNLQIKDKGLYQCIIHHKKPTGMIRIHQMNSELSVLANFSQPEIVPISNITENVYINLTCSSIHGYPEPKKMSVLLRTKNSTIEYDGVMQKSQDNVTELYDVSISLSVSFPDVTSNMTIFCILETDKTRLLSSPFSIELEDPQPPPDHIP


Key:
CD86-mIgG (Ancell, Inc) [1] = biological target: T1, CD86-mIgG (Ancell, Inc); assay: SPR (BIAcore T100), CD86-mIgG immobilized on CM5; second site
Description: (§1) SPR measurements were performed on a BIAcore™ T100 SPR (Pharmacia Biotech AB, Uppsala) using HBS-EP+ (GE Healthcare) as a running buffer. […] CTLA4-containing constructs were injected for 150 seconds, at a flow rate of 10 μl/min, in a series of concentrations from 4 nM to 10 μM. Dissociation was monitored for 600 seconds, and the surface was either regenerated by injecting 50 mM sodium citrate, 500 mM sodium chloride, pH 5.0, for 60 seconds (wild type CTLA4) or 10 mM glycine, pH 1.7 (L104E A29Y CTLA4). […] Data were analyzed using BiaEvaluation for the T100 software (version 2.0.1, GE Healthcare).
(§2) SPR measurements were performed as listed above, with the following exceptions: HBS-P+ (GE Healthcare) was used as a running buffer; dissociation was monitored for 1200 seconds; and the surface was regenerated by injecting 10 mM glycine, pH 1.7, for 60 seconds.

CD86-mIgG (Ancell, Inc) [2] = biological target: T1, CD86-mIgG (Ancell, Inc); assay: SPR (BIAcore T100), CD86-mIgG immobilized on CM5; first site
Description: as §1, §2

CD86-mIgG (Ancell, Inc) [3] = biological target: T1, CD86-mIgG (Ancell, Inc); assay: SPR (BIAcore T100), CD86-mIgG immobilized on CM5; steady-state equilibrium fit
Description: as §1, §2

| Binder | Second Site ka (CD86-mIgG (Ancell, Inc) [1]) [s⁻¹] | Second Site kd (CD86-mIgG (Ancell, Inc) [1]) [s⁻¹] | koff (CD86-mIgG (Ancell, Inc) [2]) [s⁻¹] | kon (CD86-mIgG (Ancell, Inc) [2]) [M⁻¹ s⁻¹] | Kd (CD86-mIgG (Ancell, Inc) [3]) [nM] |
| --- | --- | --- | --- | --- | --- |
| FUN1-11 humanized FUN1 SMIP (Fc fusion, SMIP: scFv-hinge-Fc single chain) EVQLVQSGAEVKKPGATVKISCKVSGYTFTDYNMNWVQQAPGKGLEWMGNIDPYYGGTSYNQKFKGRVTITADTSTDTAYMELSSLRSEDTAVYYCATWDYRYDDGRAYYVMDFWGQGTTVTVSSGGGGSGGGGSGGGGSGGGGSDIVMTQSPDSLAVSLGERATINCKSSQSVLYSSNQKNYLAWYQQKPGQPPKLLIYWASTRESGVPDRFSGSGSGTDFTLTISSLQAEDVAVYYCHQYLYSWTFGQGTKLEIKRLEPKSSDKTHTCPPCPAPEAAGAPSVFLFPPKPKDTLMISRTPEVTCVVVDVSHEDPEVKFNWYVDGVEVHNAKTKPREEQYNSTYRVVSVLTVLHQDWLNGKAYACAVSNKALPAPIEKTISKAKGQPREPQVYTLPPSRDELTKNQVSLTCLVKGFYPSDIAVEWESNGQPENNYKTTPPVLDSDGSFFLYSKLTVDKSRWQQGNVFSCSVMHEALHNHYTQKSLSLSPG | 7.5e-05 | 1.25e-06 | 0.00035 | 13900 | 119 |
| 3D1 SMIP (Fc fusion, SMIP: murine 3D1 scFv at the N-terminus of a hinge-Fc single chain) QVQLQQSGPELVRPGESVKISCKGSGYTFTDYAIQWVKQSHAKSLEWIGVINIYYDNTNYNQKFKGKATMTVDKSSSTAYMELARLTSEDSAIYYCARAAWYMDYWGQGTSVTVSSGGGGSGGGGSGGGGSGGGGSDIVLSQSPSSLAVSAGEKVTMSCKSSQSLLNSRTRENYLAWYQQKPGQSPKLLIYWASTRESGVPDRFTGSGSGTDFTLTISSVQAEDLAVYYCTQSYNLYTFGGGTKLEIKLEPKSSDKTHTCPPCPAPEAAGAPSVFLFPPKPKDTLMISRTPEVTCVVVDVSHEDPEVKFNWYVDGVEVHNAKTKPREEQYNSTYRVVSVLTVLHQDWLNGKAYACAVSNKALPAPIEKTISKAKGQPREPQVYTLPPSRDELTKNQVSLTCLVKGFYPSDIAVEWESNGQPENNYKTTPPVLDSDGSFFLYSKLTVDKSRWQQGNVFSCSVMHEALHNHYTQKSLSLSPG | 0.0055 | 0.0276 | 4.4e-05 | 323000 | 11.7 |
| 3D1::IL10 xceptor (Fc fusion, anti-CD86 3D1 scFv - Fc - IL10) QVQLQQSGPELVRPGESVKISCKGSGYTFTDYAIQWVKQSHAKSLEWIGVINIYYDNTNYNQKFKGKATMTVDKSSSTAYMELARLTSEDSAIYYCARAAWYMDYWGQGTSVTVSSGGGGSGGGGSGGGGSGGGGSDIVLSQSPSSLAVSAGEKVTMSCKSSQSLLNSRTRENYLAWYQQKPGQSPKLLIYWASTRESGVPDRFTGSGSGTDFTLTISSVQAEDLAVYYCTQSYNLYTFGGGTKLEIKLEPKSSDKTHTCPPCPAPEAAGAPSVFLFPPKPKDTLMISRTPEVTCVVVDVSHEDPEVKFNWYVDGVEVHNAKTKPREEQYNSTYRVVSVLTVLHQDWLNGKAYACAVSNKALPAPIEKTISKAKGQPREPQVYTLPPSRDELTKNQVSLTCLVKGFYPSDIAVEWESNGQPENNYKTTPPVLDSDGSFFLYSKLTVDKSRWQQGNVFSCSVMHEALHNHYTQKSLSLSPGNSLFNQEVQIPLTESYSPNSSPGQGTQSENSCTHFPGNLPNMLRDLRDAFSRVKTFFQMKDQLDNLLLKESLLEDFKGYLGCQALSEMIQFYLEEVMPQAENQDPDIKAHVNSLGENLKTLRLRLRRCHRFLPCENKSKAVEQVKNAFNKLQEKGIYKAMSEFDIFINYIEAYMTMKIRN | 0.0094 | 0.0462 | 7.06e-05 | 974000 | 26.5 |
| FUN1 mAb (parent murine anti-CD86 monoclonal antibody) (antibody, V domains shown, Murine monoclonal antibody; also called FUN1 antibody) VH: EVQLQQSGPELEKPGASVKISCKASGYSFTDYNMNWVKQSNGKSLEWIGNIDPYYGGTSYNQKFKGKATLTVDKSSSTAYMQLNSLTSEDSAVYFCARWDYRYDDGRAYYVMDFWGQGTSVTVSS VL: ELQMTQSPSSLAASAGEKVTMSCKSSQSVLYSSNQKNYLAWYQQKPGQSPKLLIYWASTRESGVPDRFTGSGSGTHFTLTVSSVQAEDLAVYYCHQYLYSWTFGGGTNLEIKR | 0.00278 | 0.0154 | 2.28e-05 | 129000 | 36 |

Further lines, results first:

| Second Site ka (CD86-mIgG (Ancell, Inc) [1]) [s⁻¹] | Second Site kd (CD86-mIgG (Ancell, Inc) [1]) [s⁻¹] | koff (CD86-mIgG (Ancell, Inc) [2]) [s⁻¹] | kon (CD86-mIgG (Ancell, Inc) [2]) [M⁻¹ s⁻¹] | Kd (CD86-mIgG (Ancell, Inc) [3]) [nM] | Binder |
| --- | --- | --- | --- | --- | --- |
| 0.00077 | 0.00377 | 2.37e-05 | 112000 | 28 | SEQ ID NO: 328 (Fc fusion, also called 3D1 PIMS (probably)) EPKSSDKTHTCPPCPAPEAAGAPSVFLFPPKPKDTLMISRTPEVTCVVVDVSHEDPEVKFNWYVDGVEVHNAKTKPREEQYNSTYRVVSVLTVLHQDWLNGKAYACAVSNKALPAPIEKTISKAKGQPREPQVYTLPPSRDELTKNQVSLTCLVKGFYPSDIAVEWESNGQPENNYKTTPPVLDSDGSFFLYSKLTVDKSRWQQGNVFSCSVMHEALHNHYTQKSLSLSPGNSLFNQEVQIPLTESYSPNSQVQLQQSGPELVRPGESVKISCKGSGYTFTDYAIQWVKQSHAKSLEWIGVINIYYDNTNYNQKFKGKATMTVDKSSSTAYMELARLTSEDSAIYYCARAAWYMDYWGQGTSVTVSSGGGGSGGGGSGGGGSGGGGSDIVLSQSPSSLAVSAGEKVTMSCKSSQSLLNSRTRENYLAWYQQKPGQSPKLLIYWASTRESGVPDRFTGSGSGTDFTLTISSVQAEDLAVYYCTQSYNLYTFGGGTKLEIK |
| 0.00578 | 0.0127 | 0.000139 | 186000 | 26.9 | FUN1-21 humanized FUN1 SMIP (Fc fusion, SMIP: scFv-hinge-Fc single chain) QVQLVQSGAEVKKPGASVKVSCKASGYTFTDYNMNWVRQAPGQGLEWMGNIDPYYGGTSYNQKFKGRVTMTRDTSISTAYMELSRLRSDDTAVYYCARWDYRYDDGRAYYVMDFWGQGTTVTVSSGGGGSGGGGSGGGGSGGGGSDIVMTQSPDSLAVSLGERATINCKSSQSVLYSSNQKNYLAWYQQKPGQPPKLLIYWASTRESGVPDRFSGSGSGTDFTLTISSLQAEDVAVYYCHQYLYSWTFGQGTKLEIKRLEPKSSDKTHTCPPCPAPEAAGAPSVFLFPPKPKDTLMISRTPEVTCVVVDVSHEDPEVKFNWYVDGVEVHNAKTKPREEQYNSTYRVVSVLTVLHQDWLNGKAYACAVSNKALPAPIEKTISKAKGQPREPQVYTLPPSRDELTKNQVSLTCLVKGFYPSDIAVEWESNGQPENNYKTTPPVLDSDGSFFLYSKLTVDKSRWQQGNVFSCSVMHEALHNHYTQKSLSLSPG |
| 0.00113 | 0.00837 | 9.1e-05 | 50000 | 70.9 | FUN1-21 PIMS (Fc fusion, PIMS: humanized FUN1-21 scFv at the carboxy-terminus) EPKSSDKTHTCPPCPAPEAAGAPSVFLFPPKPKDTLMISRTPEVTCVVVDVSHEDPEVKFNWYVDGVEVHNAKTKPREEQYNSTYRVVSVLTVLHQDWLNGKAYACAVSNKALPAPIEKTISKAKGQPREPQVYTLPPSRDELTKNQVSLTCLVKGFYPSDIAVEWESNGQPENNYKTTPPVLDSDGSFFLYSKLTVDKSRWQQGNVFSCSVMHEALHNHYTQKSLSLSPGNSLFNQEVQIPLTESYSPNSQVQLVQSGAEVKKPGASVKVSCKASGYTFTDYNMNWVRQAPGQGLEWMGNIDPYYGGTSYNQKFKGRVTMTRDTSISTAYMELSRLRSDDTAVYYCARWDYRYDDGRAYYVMDFWGQGTTVTVSSGGGGSGGGGSGGGGSGGGGSDIVMTQSPDSLAVSLGERATINCKSSQSVLYSSNQKNYLAWYQQKPGQPPKLLIYWASTRESGVPDRFSGSGSGTDFTLTISSLQAEDVAVYYCHQYLYSWTFGQGTKLEIKR |
| 0.0124 | 0.102 | 8.3e-05 | 617000 | 35.7 | IL10::3D1 xceptor (Fc fusion) SPGQGTQSENSCTHFPGNLPNMLRDLRDAFSRVKTFFQMKDQLDNLLLKESLLEDFKGYLGCQALSEMIQFYLEEVMPQAENQDPDIKAHVNSLGENLKTLRLRLRRCHRFLPCENKSKAVEQVKNAFNKLQEKGIYKAMSEFDIFINYIEAYITMKIRNLEPKSSDKTHTCPPCPAPEAAGAPSVFLFPPKPKDTLMISRTPEVTCVVVDVSHEDPEVKFNWYVDGVEVHNAKTKPREEQYNSTYRVVSVLTVLHQDWLNGKAYACAVSNKALPAPIEKTISKAKGQPREPQVYTLPPSRDELTKNQVSLTCLVKGFYPSDIAVEWESNGQPENNYKTTPPVLDSDGSFFLYSKLTVDKSRWQQGNVFSCSVMHEALHNHYTQKSLSLSPGNSLFNQEVQIPLTESYSPNSQVQLQQSGPELVRPGESVKISCKGSGYTFTDYAIQWVKQSHAKSLEWIGVINIYYDNTNYNQKFKGKATMTVDKSSSTAYMELARLTSEDSAIYYCARAAWYMDYWGQGTSVTVSSGGGGSGGGGSGGGGSGGGGSDIVLSQSPSSLAVSAGEKVTMSCKSSQSLLNSRTRENYLAWYQQKPGQSPKLLIYWASTRESGVPDRFTGSGSGTDFTLTISSVQAEDLAVYYCTQSYNLYTFGGGTKLEIK |
